Where a chain is given by its changes, count along the chain named.
B1: H4H14699P2 (antibody, human IgG4 S228P, kappa, V domains shown)
VH: EVQLVESGGGLVQPGRSLRLSCAASGFTFDDYAIHWVRQAPGKGLEWVSVISWNSDIIGYADSVKGRFTVSRDNAKNSLYLQMNSLRTEDTALYYCAKGYNWNFFDYWGQGTLVTVSS
VL: EIVLTQSPATLSLSPGERATLSCRASQSVSSYLAWYQQKPGQAPRLLIYNAANRATDIPARFSGSGSGTDFTLTISSLEPEDFAVYYCQQRSNWPLTFGGGTKVEIKR
notes: Fully human anti-IL-36R antibody
B2: H4H14708P2 (antibody, human IgG4 S228P, kappa, V domains shown)
VH: B1 VH with G10D, I34M, I57V, G59A, A61S, V70I, A97T, Y100H, N101K, N103S
VL: B1 VL with V29I, Y49F, A51V
notes: as for B1
B3: H4H14706P2 (antibody, human IgG4 S228P, kappa, V domains shown)
VH: B1 VH with A23T, A40S, I57V, V70I, T88A
VL: B1 VL
notes: as for B1
B4: H4H14700P2 (antibody, human IgG4 S228P, kappa, V domains shown)
VH: B1 VH with I34M, A40T, I57V, G59A, A61S, V70I, R87G, Y100H
VL: B1 VL with A51V, S77G, Y87F
notes: as for B1

The binders below were run against T1, human IL-36R extracellular domain expressed with a C-terminal myc-myc-hexahistidine tag (hIL-36R-MMH) (human, UniProt Q9HB29 20-337) (assay: SPR Biacore T200, mAb captured on anti-hFc, 25C, PBS-T pH 6.0 running buffer).
T1 construct: also called Human IL-36R-MMH; REGN2105
T1 sequence (Q9HB29 other isoform, or with tags, fused parts or gaps limits assumed): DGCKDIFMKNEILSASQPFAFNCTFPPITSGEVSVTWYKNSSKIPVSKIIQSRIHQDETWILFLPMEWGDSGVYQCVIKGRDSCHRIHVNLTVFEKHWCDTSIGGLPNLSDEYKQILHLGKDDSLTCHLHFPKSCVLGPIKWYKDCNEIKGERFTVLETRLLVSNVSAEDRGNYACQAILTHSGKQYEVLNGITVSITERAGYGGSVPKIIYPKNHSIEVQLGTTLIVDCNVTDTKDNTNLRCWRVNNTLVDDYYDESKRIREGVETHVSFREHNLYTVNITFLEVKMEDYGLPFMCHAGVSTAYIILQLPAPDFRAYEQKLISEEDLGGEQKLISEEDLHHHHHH
Description: (§1) Additional binding experiments were performed to determine the effect of pH on the rate of dissociation of IL-36R bound to purified anti-IL-36R antibodies, which was determined using a real-time surface plasmon resonance biosensor using a Biacore T200 instrument. The Biacore sensor surface was first derivatized by amine coupling with a monoclonal mouse anti-human Fc antibody (GE, # BR-1008-39) to capture anti-IL-36R antibodies. […] Different concentrations of hIL-36R-MMH and mfIL-36R-MMH prepared in PBS-T, pH7.4 buffer (ranging from 100 nM to 11.11 nM, 3-fold dilutions) were injected over the anti-IL-36R antibody captured surface for 4 minutes at a flow rate of 50 μL/minute and their dissociation in two running buffers, PBS-T, pH7.4 and PBS-T, pH 6.0, was monitored for 10 minutes. All of these binding kinetics experiments were performed at 25° C. and 37° C. Kinetic dissociation constant (kd) were determined by fitting the real-time sensorgrams to a 1:1 binding model using Scrubber 2.0c curve fitting software. Binding dissociative half-lives (t_{1/2}) were calculated from kd as: […]

| Binder | 100 nM Human IL-36R-MMH Bound (RU) | koff [s⁻¹] | t1/2 [min] |
| --- | --- | --- | --- |
| B1 | 79 | 0.00293 | 4 |
| B2 | 79 | 0.00163 | 7 |
| B3 | 109 | 0.000927 | 12 |
| B4 | 120 | 0.00172 | 7 |

The binders below were run against T1, human IL-36R extracellular domain … (assay: SPR Biacore T200, mAb captured on anti-hFc, 37C, PBS-T pH 6.0 running buffer).
Description: as §1

| Binder | 100 nM hIL-36R-MMH Bound (RU) | koff [s⁻¹] | t1/2 [min] |
| --- | --- | --- | --- |
| B1 | 83 | 0.00581 | 2 |
| B2 | 95 | 0.00337 | 3 |
| B3 | 132 | 0.00233 | 5 |
| B4 | 144 | 0.0035 | 3 |

What follows are binders tested against T1, human IL-36R extracellular domain … (assay: SPR Biacore T200, mAb captured on anti-hFc, 25C, PBS-T pH 7.4 running buffer).
Description: as §1

| Binder | 100 nM Human IL-36R-MMH Bound (RU) | koff [s⁻¹] | t1/2 [min] |
| --- | --- | --- | --- |
| B1 | 84 | 0.00193 | 6 |
| B2 | 87 | 0.000796 | 15 |
| B3 | 119 | 0.000616 | 19 |
| B4 | 128 | 0.000795 | 15 |

These binders were tested against T1, human IL-36R extracellular domain … (assay: SPR Biacore T200, mAb captured on anti-hFc, 37C, PBS-T pH 7.4 running buffer).
Description: as §1

| Binder | 100 nM hIL-36R-MMH Bound (RU) | koff [s⁻¹] | t1/2 [min] |
| --- | --- | --- | --- |
| B1 | 96 | 0.00415 | 3 |
| B2 | 105 | 0.00177 | 7 |
| B3 | 140 | 0.00131 | 9 |
| B4 | 153 | 0.00169 | 7 |

The binders below were run against T2, human IL-36R extracellular domain expressed with a C-terminal mouse IgG2a Fc tag (hIL-36R-mFc) (human; mouse, UniProt Q9HB29 20-337) (assay: SPR Biacore 4000, mAb captured on anti-hFc, 25C).
T2 construct: not shown: mouse IgG2a Fc, E98-K330
T2 sequence (looked up): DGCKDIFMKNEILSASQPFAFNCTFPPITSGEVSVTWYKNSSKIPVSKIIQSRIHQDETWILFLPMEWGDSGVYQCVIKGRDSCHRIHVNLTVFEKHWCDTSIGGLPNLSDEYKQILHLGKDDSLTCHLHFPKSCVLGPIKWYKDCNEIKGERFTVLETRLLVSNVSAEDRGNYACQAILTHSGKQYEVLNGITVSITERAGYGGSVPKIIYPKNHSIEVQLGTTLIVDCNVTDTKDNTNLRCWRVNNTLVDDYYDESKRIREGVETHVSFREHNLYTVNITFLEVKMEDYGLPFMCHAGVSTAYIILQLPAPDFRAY
Description: (§2) Equilibrium dissociation constants (KD values) for IL-36R binding to purified anti-IL-36R antibodies were determined using a real-time surface plasmon resonance biosensor using a Biacore 4000 instrument. The Biacore sensor surface was first derivatized by amine coupling with a monoclonal mouse anti-human Fc antibody (GE, # BR-1008-39) to capture anti-IL-36R monoclonal antibodies. All binding studies were performed in 0.01 M Hepes pH 7.4, 0.15 M NaCl, 3 mM EDTA, and 0.05% v/v Surfactant Tween-20 (HBS-ET running buffer) at 25° C. and 37° C. Different concentrations of IL-36R reagents, human IL-36R extracellular domain expressed with a C-terminal myc-myc-hexahistidine tag (hIL-36R-MMH), Macaca fascicularis IL-36R extracellular domain expressed with a C-terminal myc-myc-hexahistidine tag (mfIL-36R-MMH: mROR1 signal sequence (M1-A29). Macaca fascicularis IL36R_ecto domain (D20-A336).mycmycHis6), human IL-36R extracellular domain expressed with a C-terminal mouse IgG2a Fc tag (hIL-36R-mFc: mROR1 signal sequence (M1-A29)-human IL36R (D20-Y337)-mouse IgG2aFc (E98-K330)) or an in-line fusion protein of human IL-36R extracellular domain and IL1RAcP extracellular domain expressed with mouse IgG2a Fc tag (hIL-36R-Trap-mFc: mROR1 signal sequence (M1-A29)-human IL36R ecto domain (D20-Y337)-human IL1RacP ecto domain(S21-E359)-mouse IgG2aFc) in HBS-ET running buffer (ranging from 100 nM to 3.7 nM, 3-fold dilutions) were injected over the anti-IL-36R antibody captured surface for 4 minutes at a flow rate of 30 μL/minute and their dissociation in HBS-ET running buffer was monitored for 10 minutes. Kinetic association rate constant (kₐ) and dissociation rate constant (kd) were determined by fitting the real-time sensorgrams to a 1:1 binding model using Scrubber 2.0c curve fitting software. Binding dissociation equilibrium constants (KD) and dissociative half-lives (t_{1/2}) were calculated from the kinetic rate constants as: […]

| Binder | 100 nM hIL-36R-mFc Bound (RU) | Kd [nM] | koff [s⁻¹] | kon [M⁻¹ s⁻¹] | t1/2 [min] |
| --- | --- | --- | --- | --- | --- |
| B1 | 150 | 0.359 | 0.000203 | 564000 | 57 |
| B2 | 146 | 0.317 | 0.000128 | 403000 | 90 |
| B3 | 163 | 0.23 | 0.000132 | 575000 | 87 |
| B4 | 128 | 0.233 | 0.00012 | 517000 | 96 |

What follows are binders tested against T3, in-line fusion protein of human IL-36R extracellular domain and IL1RAcP extracellular domain expressed with … (human; mouse, UniProt Q9HB29 20-337; Q9NPH3 21-359, limits assumed) (assay: SPR Biacore 4000, mAb captured on anti-hFc, 25C).
T3 construct: not shown: mouse IgG2a Fc
T3 sequence (looked up): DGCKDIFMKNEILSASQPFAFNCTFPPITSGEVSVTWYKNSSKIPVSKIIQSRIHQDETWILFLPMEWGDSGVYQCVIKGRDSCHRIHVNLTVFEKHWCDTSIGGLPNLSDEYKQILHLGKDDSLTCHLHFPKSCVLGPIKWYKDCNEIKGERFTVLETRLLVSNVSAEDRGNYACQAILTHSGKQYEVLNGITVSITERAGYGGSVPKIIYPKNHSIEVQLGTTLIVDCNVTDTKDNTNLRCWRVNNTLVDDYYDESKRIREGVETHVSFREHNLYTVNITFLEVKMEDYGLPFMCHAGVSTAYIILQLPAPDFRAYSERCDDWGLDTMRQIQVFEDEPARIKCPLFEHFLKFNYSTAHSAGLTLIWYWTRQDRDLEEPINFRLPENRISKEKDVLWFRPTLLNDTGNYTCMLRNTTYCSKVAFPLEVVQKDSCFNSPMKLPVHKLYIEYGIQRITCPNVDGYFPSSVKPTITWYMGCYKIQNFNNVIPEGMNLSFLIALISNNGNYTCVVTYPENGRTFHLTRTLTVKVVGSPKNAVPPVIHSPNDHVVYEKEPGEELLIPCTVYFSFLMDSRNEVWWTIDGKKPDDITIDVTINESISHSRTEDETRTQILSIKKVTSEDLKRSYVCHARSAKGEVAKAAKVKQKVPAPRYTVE
Description: as §2

| Binder | 100 nM hIL-36R-Trap-mFc Bound (RU) | Kd [nM] | koff [s⁻¹] | kon [M⁻¹ s⁻¹] | t1/2 [min] |
| --- | --- | --- | --- | --- | --- |
| B1 | 188 | 0.458 | 0.000228 | 498000 | 51 |
| B2 | 172 | 0.357 | 0.000129 | 361000 | 90 |
| B3 | 205 | 0.232 | 0.00011 | 477000 | 105 |
| B4 | 157 | 0.283 | 0.000125 | 442000 | 92 |

The binders below were run against T2, human IL-36R extracellular domain … (assay: SPR Biacore 4000, mAb captured on anti-hFc, 37C).
Description: as §2

| Binder | 100 nM hIL-36R-mFc Bound (RU) | Kd [nM] | koff [s⁻¹] | kon [M⁻¹ s⁻¹] | t1/2 [min] |
| --- | --- | --- | --- | --- | --- |
| B1 | 186 | 0.767 | 0.000456 | 594000 | 25 |
| B2 | 203 | 0.435 | 0.0002 | 460000 | 58 |
| B3 | 207 | 0.449 | 0.000266 | 593000 | 43 |
| B4 | 174 | 0.39 | 0.000209 | 535000 | 55 |

What follows are binders tested against T3, in-line fusion protein of human IL-36R … (assay: SPR Biacore 4000, mAb captured on anti-hFc, 37C).
Description: as §2

| Binder | 100 nM hIL-36R-Trap-mFc Bound (RU) | Kd [nM] | koff [s⁻¹] | kon [M⁻¹ s⁻¹] | t1/2 [min] |
| --- | --- | --- | --- | --- | --- |
| B1 | 229 | 1.06 | 0.000513 | 484000 | 23 |
| B2 | 239 | 0.656 | 0.000253 | 385000 | 46 |
| B3 | 264 | 0.551 | 0.000271 | 491000 | 43 |
| B4 | 216 | 0.555 | 0.000253 | 455000 | 46 |
